Results as given in PMC2173431 (The Journal of Cell Biology, 2003).
Like-named read-outs stand apart in the source and are kept apart here. Values belong to the binder of their own block, whether it stands above or below them.

What was measured:
GST-AIP [1] = molecular target: T1, GST-AIP (human, UniProt O00170 1-330); test: pull-down
T1 sequence (looked up): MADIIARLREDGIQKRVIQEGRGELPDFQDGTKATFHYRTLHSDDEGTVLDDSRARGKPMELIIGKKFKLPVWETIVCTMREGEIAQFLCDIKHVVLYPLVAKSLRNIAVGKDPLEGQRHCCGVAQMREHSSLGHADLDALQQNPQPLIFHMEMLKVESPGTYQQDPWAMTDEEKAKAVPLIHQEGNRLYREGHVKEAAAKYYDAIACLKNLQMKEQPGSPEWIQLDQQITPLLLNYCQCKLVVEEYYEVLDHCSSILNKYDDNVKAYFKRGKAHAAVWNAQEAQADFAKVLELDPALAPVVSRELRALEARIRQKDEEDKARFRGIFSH

GST-AIP [2] = molecular target: T1, GST-AIP; test: pull-down; remark: listed apart in the source

binding result (GST-AIP [1]): binds
Binder: MLFNLRILLNNAAFRNGHNFMVRNFRCGQPLQ [synthetic presequence peptide of human pOTC]

binding result (GST-AIP [2]): binds
B1: MBP-cT20 (domain or fragment, human, UniProt Q15388 25-145, looked up)
chain: DRKRRSDPNFKNRLRERRKKQKLAKERAGLSKLPDLKDAEAVQKFFLEEIQLGEELLAQGEYEKGVDHLTNAIAVCGQPQQLLQVLQQTLPPPVFQMLLTKLPTISQRIVSAQSLAEDDVE

binding result (GST-AIP [1]): binds
Binder: QRIVSAQSLAEDDVE [Tom20C[131–145] peptide]
